Assay results published in patent US20230399388A1 (Sanofi, published 2023).
Positions count from the first letter of the chain named. Primed or numbered codes have the meaning given here. Ends that are not written are not given here. Biotin′ = not defined here

T1: kallidin
T1 peptide: KRPPGFSPFR

T2: desArg10kallidin like peptide (mouse)
T2 peptide: RRPPGFSPF

T3: KRPPGFSPFR-biotin
T3 construct: also called KD-b; KD-biotin
T3 peptide: KRPPGFSPFR-biotin

T4: RRPPGFSPFR-biotin (mouse)
T4 construct: also called KLP-b; KLP-biotin
T4 peptide: RRPPGFSPFR-biotin

T5: RRPPGFSPF-biotin (mouse)
T5 construct: also called DAKLP-b; DAKLP-biotin
T5 peptide: RRPPGFSPF-{Biotin′}

B1: I22 (antibody, V domains shown)
VH: EVQLQQSGAELVRSGASVKLSCTASGFNIKDYYMHWVKQRPEQGLEWIGWVDPENGDSDYAPKFQGKATMTADTSSNTVYLQFSSLTSEDTAVYYCNAFEYDGNYSPLDFWGQGTSVTVSS
VL: DIVMTQSPSSLSVSAGEKVTMSCKSSQSLLNSGNQKNYLAWYQQKPGQPPKLLIYGASTRESGVPDRFTGSGSGTDFTLTISSVQAEDLAVYYCQNDHSYPLTFGAGTKLELK
notes: Murine hybridoma antibody; Family 1
B2: I54 (antibody, V domains shown)
VH: B1 VH
VL: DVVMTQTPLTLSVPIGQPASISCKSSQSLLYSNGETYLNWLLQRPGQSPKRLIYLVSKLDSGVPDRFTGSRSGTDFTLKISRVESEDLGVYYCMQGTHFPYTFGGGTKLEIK
notes: Murine hybridoma antibody; Family 1; also called 154
B3: C63 (antibody, V domains shown)
VH: EVKLEESGGGLVQPGGSMKLSCVASGFTFSNYWMNWVRQSPEKGLEWVAEIRSKSNNYATHYAESVKGRFTISRDDSKSSVYLQMNNLRAEDTGIYYCIGEDYGGDYWGQGTSVTVSS
VL: DIVMSQSPSSLAVSVGEKVTMSCKSSQSLLYSSDQRNYLAWYQQRSGQSPKLLIYWASTRESGVPDRFTGSGSGTDFTLTISSVKAEDLAVYYCQQYYSYPYTFGGGTKLEIK
notes: Murine hybridoma antibody; Family 2
B4: humanized F151 variant HC2a/LC2a (antibody, human IgG1, V domains shown)
VH: QIQLVQSGAEVKKPGASVKVSCKASGYSFTDYNIYWVKQSPGKGLEWIGYFDPYNGNTGYNQKFRGKATLTVDKSSSTAYMHLSSLTSEESAVYYCANYYRYDDHAMDYWGQGTSVTVSS
VL: DIVMTQSPSSLSASVGDRVTISCKSSQSLLYSSNQKNYLAWYQQKPGKSPKPLIYWASTRESGVPDRFSGSGSGTDFTLTISSVQAEDLATYYCQQYYSYPWTFGGGTKLEIK
notes: also called LC2axHC2a
B5: humanized F151 variant HC2c/LC2b (antibody, human IgG1, V domains shown)
VH: B4 VH with L86K
VL: B4 VL with L89K
notes: also called LC2bxHC2c
B6: humanized F151 variant HC2b/LC2a (antibody, human IgG1, V domains shown)
VH: B4 VH with Q62E
VL: B4 VL
notes: also called LC2axHC2b
B7: humanized F151 variant HC1/LC1 (antibody, V domains shown)
VH: B4 VH with Q1E, A9P, G44S, Y80F, E90D
VL: B4 VL with T5S, S12A, I21M, S69T, T91I
notes: also called LC1xHC1
B8: humanized F151 variant HC3a/LC3a (antibody, human IgG1, V domains shown)
VH: QIQLVQSGAEVKKPGASVKVSCKASGYSFTDYNIYWVRQAPGQGLEWIGYFDPYNGNTGYNQKFRGRATLTVDKSTSTAYMELRSLRSDDTAVYYCANYYRYDDHAMDYWGQGTLVTVSS
VL: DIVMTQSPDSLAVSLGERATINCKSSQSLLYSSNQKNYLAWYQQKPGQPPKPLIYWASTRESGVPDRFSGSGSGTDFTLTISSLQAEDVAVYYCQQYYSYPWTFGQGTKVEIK
notes: also called hF151
B9: humanized F151 variant HC3b/LC3b (antibody, human IgG1, V domains shown)
VH: B8 VH with I2V, I48M, A68V, L70M, V72T, K74T
VL: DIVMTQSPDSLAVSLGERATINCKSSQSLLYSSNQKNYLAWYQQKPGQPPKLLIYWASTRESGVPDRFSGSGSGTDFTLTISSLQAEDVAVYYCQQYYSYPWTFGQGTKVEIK
notes: also called LC3bxHC3b

Target: T1, kallidin
Experiment: cell-based or functional assay

Binder | FLIPR (nM), KD (15 nM)
B1 | 25 nM
B2 | 30 nM

Target: desArg10kallidin
Experiment: cell-based or functional assay

Binder | FLIPR (nM), DAKD (50 nM)
B1 | 9.4 nM
B2 | 8.1 nM

Target: desArg10kallidin
Experiment: cell-based or functional assay
Remark: another data set of the same source

Binder | Mean Molar Ratio, ligand depletion, calcium mobilization in HEK mBKR1 cells
B1 | 0.07 molar ratio
B2 | 0.15 molar ratio
B3 | 0.08 molar ratio

Target: T2, desArg10kallidin like peptide
Experiment: cell-based or functional assay

Binder | Mean Molar Ratio, ligand depletion, calcium mobilization in HEK mBKR1 cells
B1 | 0.21 molar ratio
B2 | 0.35 molar ratio
B3 | 5.85 molar ratio

Target: T1, kallidin
Experiment: cell-based or functional assay
Remark: another data set of the same source

Binder | Mean Molar Ratio, ligand depletion, calcium mobilization in MRC5 cells
B1 | 0.22 molar ratio
B2 | 0.3 molar ratio
B3 | 0.23 molar ratio

Target: T3, KRPPGFSPFR-biotin
Experiment: Biacore, biotin-peptide on SA chip;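 as to kon: purified antibodies injected as twofold dilutions from 0.1 to 10 nM in HBS-EP over streptavidin-captured biotinylated BKR1 or BKR2 ligand peptides, with a random-peptide flow cell as reference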

Binder | Kd
B3 | 0.221 nM

Target: T6, …-biotin (C-terminal biotin)
T6 construct: also called DAKD-b; DAKD-biotin
Experiment: Biacore, biotin-peptide on SA chip;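 as to kon: purified antibodies injected as twofold dilutions from 0.1 to 10 nM in HBS-EP over streptavidin-captured biotinylated BKR1 or BKR2 ligand peptides, with a random-peptide flow cell as reference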

Binder | Kd
B3 | 0.142 nM

Target: T3, KRPPGFSPFR-biotin
Experiment: Biacore, biotin-peptide on SA chip;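 as to kon: purified antibodies injected as twofold dilutions from 0.1 to 10 nM in HBS-EP over streptavidin-captured biotinylated BKR1 or BKR2 ligand peptides, with a random-peptide flow cell as reference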
Remark: another data set of the same source
Excerpt: (§1) For antibody binding kinetics, the instruments used were the BIACORE 2000 or BIACORE 3000 (GE Healthcare), designed for biomolecular interaction analysis (BIA) in real time. The sensor chip used was SA chip (GE Healthcare) with streptavidin covalently immobilized on a carboxymethylated dextran matrix. Each sensor chip has four parallel flow cells (Fc). Every biotinylated BKR1 or BKR2 ligand peptides were immobilized to one of the flow cells 2 to 4 (Fc2 to Fc4) in the SA chip for binding dissociation rate screening and selectivity screening. Flow cell 1 (Fc1) was reserved and immobilized with a random peptide (biotinylated at one terminus) with equal or close peptide length in comparison to the testing ligand peptides as the negative control. In screening assays, cell culture supernatants of the hybridoma clones selected through primary screening of transiently expressed humanized variants were injected over immobilized peptides. Hybridoma cell culture media was also injected over the chip surface as blank to establish a baseline. After subtracting signals of Fc1 and blank buffer runs, the dissociation rate of the antibodies from the supernatants to each peptide was analyzed and ranked using BIAevaluation software. […] In kinetics analysis, the corresponding biotin-peptides identified in screening for the testing antibody were immobilized in Fc2 to Fc4 while Fc1 with a random peptide used as reference cell. Each purified antibody selected from screenings were made into a series of two fold dilutions in running buffer (1×HBS-EP buffer, GE Healthcare) between 0.1 to 10 nM. Binding association rate, dissociation rate and the overall affinity were calculated in BIAevaluation.

Binder | Kd | koff
B1 | 0.0044 nM | 2.1e-05 s⁻¹
B2 | 0.0112 nM | 3.88e-05 s⁻¹
B3 | 0.221 nM | 0.0001 s⁻¹

Target: T6, …-biotin
Experiment: Biacore, biotin-peptide on SA chip;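 as to kon: purified antibodies injected as twofold dilutions from 0.1 to 10 nM in HBS-EP over streptavidin-captured biotinylated BKR1 or BKR2 ligand peptides, with a random-peptide flow cell as reference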
Remark: another data set of the same source
Excerpt: as §1

Binder | Kd | koff
B1 | 0.217 nM | 0.000319 s⁻¹
B2 | 0.00953 nM | 3.06e-05 s⁻¹
B3 | 0.142 nM | 9.36e-05 s⁻¹

Target: T4, RRPPGFSPFR-biotin
Experiment: Biacore, biotin-peptide on SA chip
Excerpt: as §1

Binder | Kd | koff | binding result
B1 | 0.00182 nM | 1.03e-05 s⁻¹ | 
B2 | 0.00956 nM | 6.04e-05 s⁻¹ | 
B3 |  |  | no binding

Target: T5, RRPPGFSPF-biotin
Experiment: Biacore, biotin-peptide on SA chip
Excerpt: as §1

Binder | Kd | koff | binding result
B1 | ≤ 0.00183 nM | ≤ 1e-06 s⁻¹ | 
B2 | 0.0117 nM | 5.66e-05 s⁻¹ | 
B3 |  |  | no binding

Target: T3, KRPPGFSPFR-biotin
Experiment: Biacore, biotin-peptide on SA chip
Remark: another data set of the same source
Excerpt: as §1

Binder | Kd | koff | kon
B4 | 0.00871 nM | 6.12e-06 s⁻¹ | 703000 M⁻¹ s⁻¹
B5 | 0.0174 nM | 9.08e-06 s⁻¹ | 564000 M⁻¹ s⁻¹
B6 | 0.00472 nM | 1.66e-06 s⁻¹ | 375000 M⁻¹ s⁻¹
B7 | 0.000394 nM | 1.74e-07 s⁻¹ | 424000 M⁻¹ s⁻¹
B8 | 0.00678 nM | 2.95e-06 s⁻¹ | 427000 M⁻¹ s⁻¹
B9 | 0.0144 nM | 3.02e-06 s⁻¹ | 251000 M⁻¹ s⁻¹

Target: T6, …-biotin
Experiment: Biacore, biotin-peptide on SA chip
Remark: another data set of the same source
Excerpt: as §1

Binder | Kd | koff | kon
B4 | 0.0183 nM | 1.22e-05 s⁻¹ | 666000 M⁻¹ s⁻¹
B5 | 0.0901 nM | 4.34e-05 s⁻¹ | 481000 M⁻¹ s⁻¹
B6 | 0.0257 nM | 1.05e-05 s⁻¹ | 417000 M⁻¹ s⁻¹
B7 | 0.0145 nM | 6e-06 s⁻¹ | 416000 M⁻¹ s⁻¹
B8 | 0.0253 nM | 1.28e-05 s⁻¹ | 506000 M⁻¹ s⁻¹
B9 | 0.135 nM | 5.15e-05 s⁻¹ | 385000 M⁻¹ s⁻¹

Target: T4, RRPPGFSPFR-biotin
Experiment: Biacore, biotin-peptide on SA chip
Remark: another data set of the same source
Excerpt: as §1

Binder | Kd | koff | kon
B4 | 0.0434 nM | 2.68e-05 s⁻¹ | 615000 M⁻¹ s⁻¹
B5 | 0.0198 nM | 1.02e-05 s⁻¹ | 516000 M⁻¹ s⁻¹
B6 | 0.00576 nM | 2.2e-06 s⁻¹ | 401000 M⁻¹ s⁻¹
B7 | 0.00554 nM | 2.67e-06 s⁻¹ | 481000 M⁻¹ s⁻¹
B8 | 0.00106 nM | 5.43e-07 s⁻¹ | 502000 M⁻¹ s⁻¹
B9 | 0.526 nM | 0.000272 s⁻¹ | 539000 M⁻¹ s⁻¹

Target: T5, RRPPGFSPF-biotin
Experiment: Biacore, biotin-peptide on SA chip
Remark: another data set of the same source
Excerpt: as §1

Binder | Kd | koff | kon
B4 | 0.0138 nM | 5.67e-06 s⁻¹ | 410000 M⁻¹ s⁻¹
B5 | 0.0121 nM | 1.1e-05 s⁻¹ | 903000 M⁻¹ s⁻¹
B6 | 0.0297 nM | 1.3e-05 s⁻¹ | 446000 M⁻¹ s⁻¹
B7 | 0.016 nM | 7.96e-06 s⁻¹ | 500000 M⁻¹ s⁻¹
B8 | 0.0305 nM | 1.42e-05 s⁻¹ | 465000 M⁻¹ s⁻¹
B9 | 40.5 nM | 0.00276 s⁻¹ | 70400 M⁻¹ s⁻¹

Target: T7, biotin-… (N-terminal biotin)
T7 construct: also called b-BK
Experiment: ELISA, biotin-peptide on streptavidin plate

Binder | binding result
B3 | no binding

Target: T8, …-biotin (C-terminal biotin)
T8 construct: also called BK-b
Experiment: ELISA, biotin-peptide on streptavidin plate

Binder | binding result
B3 | no binding

Target: T9, biotin-RPPGFSPF (N-terminal biotin)
T9 construct: also called b-DABK; biotin-DABK
Experiment: ELISA, biotin-peptide on streptavidin plate

Binder | binding result
B2 | binds

Target: T10, RPPGFSPF-biotin (C-terminal biotin)
T10 construct: also called DABK-b
Experiment: ELISA, biotin-peptide on streptavidin plate

Binder | binding result
B2 | binds
